Experiment [1] has as its target T1, human VEGFA-121-His (human, UniProt P15692 181-395).
T1 construct: Prepared in-house; not shown: His tag
T1 sequence: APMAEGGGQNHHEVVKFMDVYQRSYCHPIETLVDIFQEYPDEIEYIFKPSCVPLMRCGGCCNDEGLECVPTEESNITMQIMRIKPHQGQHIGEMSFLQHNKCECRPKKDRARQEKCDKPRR
Nature of the experiment: SPR, VEGF-A121-His captured by anti-His antibody, Fab injected, single cycle kinetics; marked outside of Biacore specification; exponent as printed. Here is the method:
(§1) An anti-His capturing antibody (GE Healthcare 28995056) was immobilized to a Series S Sensor Chip C1 (GE Healthcare BR100535) using standard amine coupling chemistry resulting in a surface density of approximately 600 resonance units (RU). As running and dilution buffer, HBS-P+ (10 mM HEPES, 150 mM NaCl pH 7.4, 0.05% Surfactant P20) was used. […] A dilution series of the tested antibody (3.7-300 nM, 1:3 dilution) was successively injected for 60 s each, dissociation was monitored for 3600 s at a flow rate of 30 μl/min (single cycle kinetics). The surface was regenerated by injecting 10 mM Glycine pH 1.5 for 60 s at a flow of 5 μl/min. […] Curve fitting was performed using the 1:1 Langmuir binding model within the Biacore® evaluation software.
Binding kinetics to human VEGF-A and human ANG2 for the candidate antibodies were assessed as described above using the indicated Fab fragments (amino acid sequence as illustrated in Table 4).

The target in the next experiment is T2, human Ang2-RBD (human, UniProt O15123 275-496, limits assumed).
T2 construct: also called Human ANG2 (SPR); Angiopoietin 2-RBD
T2 sequence: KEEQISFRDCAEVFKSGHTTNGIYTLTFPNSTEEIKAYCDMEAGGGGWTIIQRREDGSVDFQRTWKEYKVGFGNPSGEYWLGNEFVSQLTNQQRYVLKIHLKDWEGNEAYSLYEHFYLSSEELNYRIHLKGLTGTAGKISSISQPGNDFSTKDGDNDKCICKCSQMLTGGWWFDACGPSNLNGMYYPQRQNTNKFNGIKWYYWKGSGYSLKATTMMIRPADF
Put plainly: SPR, Fab captured by anti-Fab antibody, Ang2-RBD injected, 25 C. The procedure: An anti-Fab capturing antibody (GE Healthcare 28958325) was immobilized to a Series S Sensor Chip C1 (GE Healthcare BR100535) using standard amine coupling chemistry resulting in a surface density of approximately 800 resonance units (RU). As running and dilution buffer, HBS-P+ (10 mM HEPES, 150 mM NaCl pH 7.4, 0.05% Surfactant P20) was used, the temperature of measurement was 25° C. The tested antibody was captured by injecting a 50 nM solution for 60 sec at a flow of 5 μl/min. Association was measured by injection of human Ang2-RBD in various concentrations in solution for 180 sec at a flow of 30 μl/min (0.07 nM-50 nM, 1:3 dilution). The dissociation phase was monitored for up to 900 sec and triggered by switching from the sample solution to running buffer at a flow rate of 30 μl/min. The surface was regenerated by injection of 10 mM Glycine pH 2.1 for 60 s at a flow rate of 30 μl/min. Bulk refractive index differences were corrected by subtracting blank injections and by subtracting the response obtained from the reference flow cell without captured tested antibody. Curve fitting was performed using the 1:1 Langmuir binding model within the Biacore® evaluation software.

The target of experiment [2] is T1, human VEGFA-121-His. Nature of the experiment: KinExA equilibrium titration in solution, constant VEGFA-121-His. Here is the method:
All KinExA® experiments were performed at room temperature (RT) using PBS pH 7.4 with 0.01% BSA and 0.01% Tween® 20 (BioRad, #161-0781) as running buffer. […] A flow rate of 0.25 ml/min was used. […] Antigen-antibody complexes were incubated at RT for at least 8 h to allow equilibrium to be reached. […] Each sample was measured in duplicates for all equilibrium experiments. The KD was obtained from non-linear regression analysis of the data using a one-site homogeneous binding model contained within the KinExA® software (Version 4.0.11) using the “standard analysis” method. The software calculates the KD and determines the 95% confidence interval by fitting the data points to a theoretical KD curve. The 95% confidence interval is given as KD low and KD high.

The target of the next experiment is T3, human Ang2-RBD-muFc (human, UniProt O15123 275-496, limits assumed).
T3 construct: also called Human ANG2 (KinExA); not shown: murine Fc (muFc)
T3 sequence: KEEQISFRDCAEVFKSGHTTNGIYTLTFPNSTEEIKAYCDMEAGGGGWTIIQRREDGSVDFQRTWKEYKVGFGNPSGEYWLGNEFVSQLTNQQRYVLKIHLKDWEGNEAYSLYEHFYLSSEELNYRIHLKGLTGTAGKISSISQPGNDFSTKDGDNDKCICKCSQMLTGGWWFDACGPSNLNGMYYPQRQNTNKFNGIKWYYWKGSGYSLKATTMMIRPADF
Put plainly: KinExA equilibrium titration in solution, constant Ang2-RBD-muFc. Here is the method:
All KinExA® experiments were performed at room temperature (RT) using PBS pH 7.4 with 0.01% BSA and 0.01% Tween® 20 (BioRad, #161-0781) as running buffer. […] A flow rate of 0.25 ml/min was used. A constant amount of Ang2-RBD-muFc (50 pM and in a second experiment 500 pM) was titrated with tested antibody by twofold serial dilution starting at 4 nM (concentration range 1.95 pM-4000 pM). Antigen-antibody complexes were incubated at RT for at least 8 h to allow equilibrium to be reached. Equilibrated mixtures were then drawn through a column of Anti-Ang2 antibody (MAB098) coupled beads in the KinExA® system at a volume of 750 μl for 50 pM constant Ang2 and at a volume of 188 μl for 500 pM constant Ang2 permitting unbound Ang2 to be captured by the beads without perturbing the equilibrium state of the solution. Bound Ang2 was detected using a second biotinylated anti-Ang2 antibody (BAM0981) with a concentration of 250 ng/ml and following by an injection of 250 ng/ml Streptavidin Alexa Fluor™ 647 conjugate in sample buffer. Each sample was measured in duplicates for all equilibrium experiments. The KD was obtained from non-linear regression analysis of the data using a one-site homogeneous binding model contained within the KinExA® software (Version 4.0.11) using the “standard analysis” method. […]

For experiment [3], the target named is T1, human VEGFA-121-His. Put plainly: SPR, VEGF-A121-His captured by anti-His antibody, Fab injected, single cycle kinetics, 1:1 fit. Here is the method:
as §1

B1: bispecific anti-VEGF-A/anti-ANG2 Fab fragment P1AD9820 (Fab, V domains shown)
VH: SEHLVESGGGLVKPGGSLRLSCATADFFEYDDMSWVRQAPGKGLEWVGSISPKGDHKYLNTKFIGRFTISRDDSKNTLYLQMNSLRAEDTAVYYCARDVGFFDWWGQGTLVTVSS
VL: AIYMHQEPSSLSASVGDRVTITCHGSYWLNSEVAWYQQKPGKAPKLLIFDGDFKVYEVPSRFSGSGSHEDYTLTISSLQPEDFATYYCQQYRYHPYTFGHGTKVEIKR
notes: Bispecific Fab with two paratopes in one VH/VL pair; also called P1AD9820 Fab
In turn, B1 returned a koff in the experiment with human VEGFA-121-His [1] of 5.82e-06 s⁻¹.

B2: bispecific anti-VEGF-A/anti-ANG2 Fab fragment P1AA8906 (Fab, V domains shown)
VH: DFQLVESGGGLVKPGGSLRLSCAASYEFEYDDMSWVRQAPGKGLEWVGSISPKGGSTYYNTKFIGRFTISRDNSKNTLYLQMNSLRAEDTAVYYCARDVGFFDMWGQGTLVTVSS
VL: AIYMHQEPSSLSASVGDRVTITCHGSYWLSNYLAWYQQKPGKAPKLLIFDARWLVHGVPSRFSGSGSHEDYTLTISSLQPEDFATYYCQQYRYHPYTFGHGTKVEIKR
notes: Bispecific Fab with two paratopes in one VH/VL pair (DutaFab); CH1 and Ckappa
B2: the “t1/2” value with human Ang2-RBD was 24 s. The Kd with human VEGFA-121-His [2] was 0.0109 nM; with human Ang2-RBD-muFc, 7.18 nM. For the same molecule, the kon in the experiment with human VEGFA-121-His [3] worked out at 1.66e+06 M⁻¹ s⁻¹.

(Values after US20220073599A1 (Hoffmann-La Roche, published 2022).)
